What was measured:
HUVEC = test: ELISA of VEGF secretion by HUVEC; assay type: cell-based, human; details: HUVEC incubated with Gal1
Procedure: Mouse IFN-γ and IL-10 ELISA sets were from BD Biosciences and mouse IL-17 kit was from R&D. Human soluble VEGF was assessed by ELISA (DY293B; R&D). Soluble Gal1 was determined using an in-house ELISA. Briefly, high binding 96-well microplates (Corning Costar) were coated with capture antibody (2 μg/ml purified rabbit anti-Gal1 polyclonal IgG) in 0.1 M sodium carbonate pH 9.5. After incubation for 18 hours at 4° C., wells were rinsed three times with wash buffer (0.05% Tween-20 in PBS) and incubated for 1 h at RT with blocking solution (2% BSA in PBS). Samples and standards (100 μl) were diluted in 1% BSA and incubated for 18 hours at 4° C. Plates were then washed and incubated with 100 ng/ml biotinylated detection antibody (purified rabbit anti-Gal1 polyclonal IgG) for 1 hour at RT. Plates were rinsed three times before adding horseradish peroxidase-labeled streptavidin (0.33 μg/ml; Sigma) for 30 min at RT. After washing, 100 μl of TMB solution (0.1 mg/ml tetramethylbenzidine and 0.06% H2O2 in citrate-phosphate buffer pH 5) was added to the plates. The reaction was stopped by adding 4N H2SO4. Optical densities were determined at 450 nm in a Multiskan MS microplate reader (Thermo Electron Corporation). A standard curve ranging from 2.5 to 160 ng/ml recombinant Gal1 was run in parallel.

[1] = biological target: recombinant human Gal1 (rGal1) (Homo sapiens, UniProt P09382); test: Anti-Gal1 mAb neutralization of rGal1-induced apoptosis of activated T cells; assay type: cell-based; details: 10 μM rGal1 pre-incubated with 5 μM mAb; 16 h; Annexin V-FITC/PI
Procedure: Normal T cells were purified and activated with a combination of αCD3 (0.1 μg/ml) and αCD28 (0.5 μg/ml) as previously described (Juszczynski et al. (2007) Proc Natl Acad Sci USA 104:13134-9). Ten μM recombinant human Gal1 (rGal1) was pre-incubated with 5 μM anti-Gal1 mAb 8F4F8G7 or isotype control IgG2b2, (Rockland Immunochemicals Inc., Boyertown, Pa.) or medium alone at 37° C. for 30 min. Thereafter, rGal1+/− antibody was added to in vitro αCD3 and αCD28 activated T cells. After 16 h treatment, cells were harvested for apoptosis analysis using Annexin V-FITC and PI (BD Biosciences, San Jose, Calif.) flow cytometry as previously described (Juszczynski et al. (2007) Proc Natl Acad Sci USA 104:13134-9).

recombinant His-Gal1 = biological target: T1, recombinant His-Gal1 (human, UniProt P09382 1-135, limits assumed); test: ELISA on recombinant protein
T1 construct: not shown: His tag
Text: (§1) Anti-human Gal1 mAbs were obtained by immunizing B6-Cg-Tg (BCL2)22Wehi-J mice (Jackson Labs, Bar Harbor, Me.) with recombinant human glutathione-s-transferase (GST)-Gal1, generating anti-Gal1 hybridomas with standard methods and purifying the Gal1 monoclonal antibody and class-matched IgG2bλ, control by affinity chromatography. […] A previously described anti-Gal1 polyclonal antibody (Juszczynski et al. (2007) *Proc Natl Acad Sci USA* 104:13134-9) was used as a positive control in all assays.

[2] = biological target: T2, recombinant human glutathione-s-transferase (GST)-Gal1 (human, UniProt P09382 1-135); test: ELISA on recombinant protein
T2 construct: Immunogen and ELISA antigen; not shown: glutathione-S-transferase (GST) tag
Text: as §1

KS tumors = test: KS xenograft in nude mice; assay type: in vivo
Procedure: HUVEC transfected or not with specific siRNA or pre-incubated with signaling pathway inhibitors were exposed to VEGF or Gal1 with or without lactose, sucrose, 8F4F8G7 mAb or control isotype (IgG1κ) or specific antibodies for VEGFR1 (AP-MAB0702; Abcam), VEGFR2 (AF357; R&D), VEGFR3 (AB89501; Abcam) or VEGF (MAB293; R&D). Cells were processed for proliferation, migration, invasion and tube formation assays. Tumor-associated blood vessels were identified by flow cytometry using Alexa Fluor 647-conjugated anti-CD34 antibody (RAM34; eBioscience).
Wild-type KS cells or shRNA clones (5×10^6 cells) were injected subcutaneously into 6- to 8-week old nude mice. Wild-type B16 cells or shRNA clones (2×10^5 cells) were injected into 6- to 8-week old B6 or B6/Rag^−/− mice and tumor development was monitored as described in Rubinstein et al. (2004) Cancer Cell 5, 241-251. Treatments with 8F4F8G7 mAb or control isotype (2.5, 7.5 or 15 mg/kg; i.p. injections every three days) were initiated when tumors reached 100 mm^3. […] At 2 weeks after tumor challenge, lymph node cells (5×10^5 cells/well) were restimulated for 72 h with 1×10^4 irradiated (4,000 rads) B16 cells and were analyzed for proliferation and cytokine production. […] CFSE^+ cells or PerCP-labeled beads were analyzed after 24 h or 15 min respectively by flow cytometry in tumor parenchyma and spleen.

B16 tumors = test: Adoptive transfer of CFSE-labeled T cells or fluorescent beads into B16 tumor-bearing mice; assay type: in vivo, mouse
Procedure: Wild-type KS cells or shRNA clones (5×10^6 cells) were injected subcutaneously into 6- to 8-week old nude mice. Wild-type B16 cells or shRNA clones (2×10^5 cells) were injected into 6- to 8-week old B6 or B6/Rag^−/− mice and tumor development was monitored as described in Rubinstein et al. (2004) Cancer Cell 5, 241-251. Treatments with 8F4F8G7 mAb or control isotype (2.5, 7.5 or 15 mg/kg; i.p. injections every three days) were initiated when tumors reached 100 mm^3. Mice were sacrificed when tumors reached a volume greater than 2 cm^3. At 2 weeks after tumor challenge, lymph node cells (5×10^5 cells/well) were restimulated for 72 h with 1×10^4 irradiated (4,000 rads) B16 cells and were analyzed for proliferation and cytokine production. For adoptive transfer, splenic T cells (5×10^6) from tumor-bearing mice were labeled with CFSE (Molecular Probes) and injected through the tail vein into tumor-bearing recipient mice treated with 8F4F8G7 or control mAb. In related studies, fluorescent beads (3 μm; BD Biosciences), rather than splenic T cells, were injected into tumor-bearing animals treated with 8F4F8G7 or control antibody. CFSE^+ cells or PerCP-labeled beads were analyzed after 24 h or 15 min respectively by flow cytometry in tumor parenchyma and spleen.

T1 sequence (P09382 whole entry): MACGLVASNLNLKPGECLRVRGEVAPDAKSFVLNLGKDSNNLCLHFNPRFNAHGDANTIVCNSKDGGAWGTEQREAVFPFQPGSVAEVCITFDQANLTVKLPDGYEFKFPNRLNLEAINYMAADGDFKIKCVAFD
T2 sequence (P09382 whole entry): as above
recombinant human Gal1 (rGal1), sequence (P09382 whole entry): as above

Row | Molecule | VEGF secretion (HUVEC) | rGal1-induced apoptosis of αCD3/αCD28-activated T cells [1] | binding result (recombinant His-Gal1) | binding result [2] | tumor microvasculature (KS tumors; CD34+ ECs and tumor hemoglobin content, vs isotype control) | tumor growth (KS tumors; established KS tumors, 2.5, 7.5 or 15 mg/kg i.p. every three days) | T cells reaching tumor parenchyma (increase) (B16 tumors; CFSE-labeled T cells, vs control isotype) [fold] | number of CFSE+ T cells in spleens (B16 tumors; recipient mice) | access of fluorescently-labeled beads to the tumor parenchyma (B16 tumors; vs isotype-treated mice, 15 min)
1 | rGal1: recombinant human galectin-1 | lack of effects |  |  |  |  |  |  |  | 
2 | anti-Gal1 monoclonal antibody 8F4F8G7 (antibody, V domains shown, Murine hybridoma mAb (deposit PTA-10535), lambda light chain; also called 14-19 8F4-F8-G7; clone 8F4.8F.67) VH: EVQLQQSVAEFVRPGASVRLSCTASGFNIKNTYIHWVRQRPEQGLEWIGKIDPANGNTKYVPEFQGKATMTADTSSNTVYLHLSSLTSEDTAIYYCVDGYYGWYFAVWGTGTTVTVSS VL: QAVVTQESALTTSPGETVTLTCRSSTGAVTTSNYANWVQEKPDHLFTGLIGATNNRAPGVPARFSGSLIGDKAVLTITGAQTEDEAIYFCALWYRNHFIFGSGTKVTVL |  | almost completely inhibited | binds | binds | significant reduction | dose-dependent delay | 3 | no differences | increased access
